Key:
[1] = Myc immunoblot of HEK293 whole cell lysates; conditions: glycan lost; control: wild type
[2] = Myc immunoblot of HEK293 medium, with/without Ni-NTA enrichment; conditions: glycan lost; control: wild type

B1: murine IGSF1-2 (IGSF1 isoform 2): N43Q (protein)
parent chain: MMLRTFTLLLLCIWLNPGMTSLAVESQPELWIESNYPQAPWENITLWCKSPSRVSSKFLLLKDNSQMTWIRPPYKTFQVSFFIGALTESNTGLYRCCYWKEKGWSKPSKILELEAPGQLPKPIFWIQAETPPLPGCNVNIFCHGWLQDLVFMLFKEGYTEPVDYQVPTGTMAIFSIDNLAPENEGVYICRTHIQMLPTLWSEPSNPLKLVVAGGCGHGCWHLTIVIPGIMAG
- expression_or_secretion [1]: no change
- expression_or_secretion [2]: no change

B2: rat IGSF1-2 (IGSF1 isoform 2): N44Q (protein)
parent chain: MMLRTFTLLLLCIWLNRGMTSMAAVESQPELWIESNYPQAPWENITLWCKSPSRVSSKFLLLKDNTQMTWIHPPYKTFQVSFFIGALTESNTGLYRCCYWNEKGWSKPSKILELEAPGQLPKPIFWIQAETPPFPGCNVNILCHGWLQDLVFMLFKEGYTEPIDYQVPTGTMAIFSIDNLAPENEGIYICRTHIQMLPTLWSEPSNPLKLVVAGGCAHGCWHLTIVIPGIMAG
- expression_or_secretion [1]: no change
- expression_or_secretion [2]: no change
